This data set deals with the molecule itself. The data set is described as follows: […], pH 6.6.

B1: Nup100f-Trp-7xHis (WT) (domain or fragment)
chain: GVFGQNNNQMQINGNNNNSLFGKANTFSNSASGGLFGQNNQQQGSGLFGQNSQTSGSSGLFGQNNQKQPNTFTQSNTGIGLFGQNNNQQQQSTGLFGAKPA
Consider B1, for which the binding result is “binds”.

The values are drawn from paper PMC3609069 (Prion, 2012).
